Results from patent US20170190753A1 (LABORATOIRE FRANCAIS DU FRACTIONNEMENT ET DES …, published 2017).

Biological target: C3 convertase complex (UniProt P01024 23-1663; P00751 260-764)
Assay: cell-based or functional assay
For C3 convertase activity % of the control in this document: test concentration or dose not given here.

C3 convertase complex, sequence (P01024 23-1663, chain 1 of 2): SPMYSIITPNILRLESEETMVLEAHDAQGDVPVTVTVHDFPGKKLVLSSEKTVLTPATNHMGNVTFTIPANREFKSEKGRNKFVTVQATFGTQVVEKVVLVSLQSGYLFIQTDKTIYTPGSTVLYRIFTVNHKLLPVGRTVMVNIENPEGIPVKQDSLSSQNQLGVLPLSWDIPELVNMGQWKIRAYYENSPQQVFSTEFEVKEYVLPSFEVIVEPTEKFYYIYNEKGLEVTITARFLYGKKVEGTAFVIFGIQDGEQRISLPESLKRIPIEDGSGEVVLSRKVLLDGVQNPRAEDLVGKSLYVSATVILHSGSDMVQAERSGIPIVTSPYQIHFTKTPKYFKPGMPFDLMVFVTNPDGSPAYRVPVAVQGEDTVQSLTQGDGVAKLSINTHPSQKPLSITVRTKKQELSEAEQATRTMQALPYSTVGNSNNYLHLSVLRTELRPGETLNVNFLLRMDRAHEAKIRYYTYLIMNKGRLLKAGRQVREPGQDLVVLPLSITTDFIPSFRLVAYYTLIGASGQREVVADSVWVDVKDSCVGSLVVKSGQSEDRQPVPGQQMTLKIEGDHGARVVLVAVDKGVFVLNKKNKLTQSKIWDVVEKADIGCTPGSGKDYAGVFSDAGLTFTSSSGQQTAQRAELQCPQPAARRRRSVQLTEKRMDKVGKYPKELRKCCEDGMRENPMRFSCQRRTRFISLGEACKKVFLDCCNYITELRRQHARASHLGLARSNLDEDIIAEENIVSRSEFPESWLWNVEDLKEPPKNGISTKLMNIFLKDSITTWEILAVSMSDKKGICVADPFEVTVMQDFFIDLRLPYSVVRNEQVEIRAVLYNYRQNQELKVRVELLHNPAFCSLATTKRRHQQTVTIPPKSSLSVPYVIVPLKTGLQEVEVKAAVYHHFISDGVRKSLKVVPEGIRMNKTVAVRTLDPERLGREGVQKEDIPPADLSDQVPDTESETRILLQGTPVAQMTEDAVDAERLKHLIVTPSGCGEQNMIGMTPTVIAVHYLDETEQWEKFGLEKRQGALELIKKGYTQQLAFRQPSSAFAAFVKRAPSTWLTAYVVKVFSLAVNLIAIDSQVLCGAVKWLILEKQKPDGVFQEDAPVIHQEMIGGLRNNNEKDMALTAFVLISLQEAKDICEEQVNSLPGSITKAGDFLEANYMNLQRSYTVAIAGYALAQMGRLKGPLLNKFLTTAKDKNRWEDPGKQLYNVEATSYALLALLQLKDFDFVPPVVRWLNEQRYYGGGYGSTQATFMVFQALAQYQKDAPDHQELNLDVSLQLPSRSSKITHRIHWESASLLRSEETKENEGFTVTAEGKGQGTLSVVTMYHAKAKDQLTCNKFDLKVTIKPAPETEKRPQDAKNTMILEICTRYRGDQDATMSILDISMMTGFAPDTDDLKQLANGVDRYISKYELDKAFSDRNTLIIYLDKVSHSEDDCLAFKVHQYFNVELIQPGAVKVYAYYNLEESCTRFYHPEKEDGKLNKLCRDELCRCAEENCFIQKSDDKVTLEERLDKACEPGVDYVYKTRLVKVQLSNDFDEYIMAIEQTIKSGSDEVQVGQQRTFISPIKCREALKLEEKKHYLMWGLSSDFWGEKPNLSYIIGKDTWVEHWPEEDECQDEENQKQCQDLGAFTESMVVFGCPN
C3 convertase complex, sequence (P00751 260-764, chain 2 of 2): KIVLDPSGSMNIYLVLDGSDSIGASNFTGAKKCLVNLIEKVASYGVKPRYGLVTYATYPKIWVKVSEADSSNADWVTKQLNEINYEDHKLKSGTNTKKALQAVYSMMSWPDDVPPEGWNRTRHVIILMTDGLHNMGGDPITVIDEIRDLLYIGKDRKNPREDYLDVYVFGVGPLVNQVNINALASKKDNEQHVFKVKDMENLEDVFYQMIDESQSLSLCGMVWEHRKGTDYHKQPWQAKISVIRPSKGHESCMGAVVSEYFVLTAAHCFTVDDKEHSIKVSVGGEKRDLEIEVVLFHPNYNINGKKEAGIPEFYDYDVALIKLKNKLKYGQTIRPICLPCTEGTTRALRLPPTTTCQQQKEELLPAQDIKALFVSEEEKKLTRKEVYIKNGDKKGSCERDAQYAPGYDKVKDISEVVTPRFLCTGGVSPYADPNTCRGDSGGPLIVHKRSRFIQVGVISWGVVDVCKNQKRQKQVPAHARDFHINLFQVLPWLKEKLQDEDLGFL

Row | C3 convertase activity % of the control | C3 convertase activity IC50 [µg/mL] | Binder
1 | 7 % of the control | 2.04 | pCEP4-1NT7-12CT20 (other) EDCNELPPRRNTEILTGSWSDQTYPEGTQAIYKCRPGYRSLGNVIMVCRKGEWVALNPLRKCQKRPCGHPGDTPFGTFTLTGGNVFEYGVKAVYTCNEGYQLLGEINYRECDTDGWTNDIPICEVVKCLPVTAPENGKIVSSAMEPDREYHFGQAVRFVCNSGYKIEGDEEMHCSDDGFWSKEKPKCVEISCKSPDVINGSPISQKIIYKENERFQYKCNMGYEYSERGDAVCTESGWRPLPSCEEKSCDNPYIPNGDYSPLRIKHRTGDEITYQCRNGFYPATRGNTAKCTSTGWIPAPRCTLKPCDYPDIKHGGLYHENMRRPYFPVAVGKYYSYYCDEHFETPSGSYWDHIHCTQDGWSPAVPCLRKCYFPYLENGYNQNYGRKFVQGKSIDVACHPGYALPKAQTTVTCMENGWSPTPRCIRVKTGASGCGDIPELEHGWAQLSSPPYYYGDSVEFNCSESFTMIGHRSITCIHGVWTQLPQCVAIDKLKKCKSSNLIILEEHLKNKKEFDHNSNIRYRCRGKEGWIHTVCINGRWDPEVNCSMAQIQLCPPPPQIPNSHNMTTTLNYRDGEKVSVLCQENYLIQEGEEITCKDGRWQSIPLCVEKIPCSQPPQIEHGTINSSRSSQESYAHGTKLSYTCEGGFRISEENETTCYMGKWSSPPQCEGLPCKSPPEISHGVVAHMSDSYQYGEEVTYKCFEGFGIDGPAIAKCLGEKWSHPPSCIKTDCLSLPSFENAIPMGEKKDVYKAGEQVTYTCATYYKMDGASNVTCINSRWTGRPTCRDTSCVNPPTVQNAYIVSRQMSKYPSGERVRYQCRSPYEMFGDEEVMCLNGNWTEPPQCKDSTGKCGPPPPIDNGDITSFPLSVYAPASSVEYQCQNLYQLEGNKRITCRNGQWSEPPKCLHPCVISREIMENYNIALRWTAKQKLYSRTGESVEFVCKRGYRLSSRSHTLRTTCWDGKLEYPTCAKRGGSGHHHHHH
2 | 6 % of the control | 1.17 | pCEP4-1NT10-15CT20 (other) EDCNELPPRRNTEILTGSWSDQTYPEGTQAIYKCRPGYRSLGNVIMVCRKGEWVALNPLRKCQKRPCGHPGDTPFGTFTLTGGNVFEYGVKAVYTCNEGYQLLGEINYRECDTDGWTNDIPICEVVKCLPVTAPENGKIVSSAMEPDREYHFGQAVRFVCNSGYKIEGDEEMHCSDDGFWSKEKPKCVEISCKSPDVINGSPISQKIIYKENERFQYKCNMGYEYSERGDAVCTESGWRPLPSCEEKSCDNPYIPNGDYSPLRIKHRTGDEITYQCRNGFYPATRGNTAKCTSTGWIPAPRCTLKPCDYPDIKHGGLYHENMRRPYFPVAVGKYYSYYCDEHFETPSGSYWDHIHCTQDGWSPAVPCLRKCYFPYLENGYNQNHGRKFVQGKSIDVACHPGYALPKAQTTVTCMENGWSPTPRCIRVKTCSKSSIDIENGFISESQYTYALKEKAKYQCKLGYVTADGETSGSITCGKDGWSAQPTCIKSCDIPVFMNARTKNDFTWFKLNDTLDYECHDGYESNTGSTTGSIVCGYNGWSDLPICYERECELPKIDVHLVPDRKKDQYKVGEVLKFSCKPGFTIVGPNSVQCYHFGLSPDLPICKEQVQSGASGCSQPPQIEHGTINSSRSSQESYAHGTKLSYTCEGGFRISEENETTCYMGKWSSPPQCEGLPCKSPPEISHGVVAHMSDSYQYGEEVTYKCFEGFGIDGPAIAKCLGEKWSHPPSCIKTDCLSLPSFENAIPMGEKKDVYKAGEQVTYTCATYYKMDGASNVTCINSRWTGRPTCRDTSCVNPPTVQNAYIVSRQMSKYPSGERVRYQCRSPYEMFGDEEVMCLNGNWTEPPQCKDSTGKCGPPPPIDNGDITSFPLSVYAPASSVEYQCQNLYQLEGNKRITCRNGQWSEPPKCLHPCVISREIMENYNIALRWTAKQKLYSRTGESVEFVCKRGYRLSSRSHTLRTTCWDGKLEYPTCAKRGGSGHHHHHH
3 | 6 % of the control | 1.99 | pCEP4-1NT11-14CT20 (other) EDCNELPPRRNTEILTGSWSDQTYPEGTQAIYKCRPGYRSLGNVIMVCRKGEWVALNPLRKCQKRPCGHPGDTPFGTFTLTGGNVFEYGVKAVYTCNEGYQLLGEINYRECDTDGWTNDIPICEVVKCLPVTAPENGKIVSSAMEPDREYHFGQAVRFVCNSGYKIEGDEEMHCSDDGFWSKEKPKCVEISCKSPDVINGSPISQKIIYKENERFQYKCNMGYEYSERGDAVCTESGWRPLPSCEEKSCDNPYIPNGDYSPLRIKHRTGDEITYQCRNGFYPATRGNTAKCTSTGWIPAPRCTLKPCDYPDIKHGGLYHENMRRPYFPVAVGKYYSYYCDEHFETPSGSYWDHIHCTQDGWSPAVPCLRKCYFPYLENGYNQNHGRKFVQGKSIDVACHPGYALPKAQTTVTCMENGWSPTPRCIRVKTCSKSSIDIENGFISESQYTYALKEKAKYQCKLGYVTADGETSGSITCGKDGWSAQPTCIKSCDIPVFMNARTKNDFTWFKLNDTLDYECHDGYESNTGSTTGSIVCGYNGWSDLPICYERECELPKIDVHLVPDRKKDQYKVGEVLKFSCKPGFTIVGPNSVQCYHFGLSPDLPICKEQVQSCGPPPELLNGNVKEKTKEEYGHSEVVEYYCNPRFLMKGPNKIQCVDGEWTTLPVCIVEESTGASGCPPPPQIPNSHNMTTTLNYRDGEKVSVLCQENYLIQEGEEITCKDGRWQSIPLCVEKIPCSQPPQIEHGTINSSRSSQESYAHGTKLSYTCEGGFRISEENETTCYMGKWSSPPQCEGLPCKSPPEISHGVVAHMSDSYQYGEEVTYKCFEGFGIDGPAIAKCLGEKWSHPPSCIKTDCLSLPSFENAIPMGEKKDVYKAGEQVTYTCATYYKMDGASNVTCINSRWTGRPTCRDTSCVNPPTVQNAYIVSRQMSKYPSGERVRYQCRSPYEMFGDEEVMCLNGNWTEPPQCKDSTGKCGPPPPIDNGDITSFPLSVYAPASSVEYQCQNLYQLEGNKRITCRNGQWSEPPKCLHPCVISREIMENYNIALRWTAKQKLYSRTGESVEFVCKRGYRLSSRSHTLRTTCWDGKLEYPTCAKRGGSGHHHHHH
4 | 5 % of the control | 1.78 | pCEP4-1NT11-19CT20 (other) EDCNELPPRRNTEILTGSWSDQTYPEGTQAIYKCRPGYRSLGNVIMVCRKGEWVALNPLRKCQKRPCGHPGDTPFGTFTLTGGNVFEYGVKAVYTCNEGYQLLGEINYRECDTDGWTNDIPICEVVKCLPVTAPENGKIVSSAMEPDREYHFGQAVRFVCNSGYKIEGDEEMHCSDDGFWSKEKPKCVEISCKSPDVINGSPISQKIIYKENERFQYKCNMGYEYSERGDAVCTESGWRPLPSCEEKSCDNPYIPNGDYSPLRIKHRTGDEITYQCRNGFYPATRGNTAKCTSTGWIPAPRCTLKPCDYPDIKHGGLYHENMRRPYFPVAVGKYYSYYCDEHFETPSGSYWDHIHCTQDGWSPAVPCLRKCYFPYLENGYNQNHGRKFVQGKSIDVACHPGYALPKAQTTVTCMENGWSPTPRCIRVKTCSKSSIDIENGFISESQYTYALKEKAKYQCKLGYVTADGETSGSITCGKDGWSAQPTCIKSCDIPVFMNARTKNDFTWFKLNDTLDYECHDGYESNTGSTTGSIVCGYNGWSDLPICYERECELPKIDVHLVPDRKKDQYKVGEVLKFSCKPGFTIVGPNSVQCYHFGLSPDLPICKEQVQSCGPPPELLNGNVKEKTKEEYGHSEVVEYYCNPRFLMKGPNKIQCVDGEWTTLPVCIVEESTGASGCGPPPPIDNGDITSFPLSVYAPASSVEYQCQNLYQLEGNKRITCRNGQWSEPPKCLHPCVISREIMENYNIALRWTAKQKLYSRTGESVEFVCKRGYRLSSRSHTLRTTCWDGKLEYPTCAKRGGSGHHHHHH
5 | 5 % of the control | 2.19 | pCEP4-1NT9-15CT20 (other) EDCNELPPRRNTEILTGSWSDQTYPEGTQAIYKCRPGYRSLGNVIMVCRKGEWVALNPLRKCQKRPCGHPGDTPFGTFTLTGGNVFEYGVKAVYTCNEGYQLLGEINYRECDTDGWTNDIPICEVVKCLPVTAPENGKIVSSAMEPDREYHFGQAVRFVCNSGYKIEGDEEMHCSDDGFWSKEKPKCVEISCKSPDVINGSPISQKIIYKENERFQYKCNMGYEYSERGDAVCTESGWRPLPSCEEKSCDNPYIPNGDYSPLRIKHRTGDEITYQCRNGFYPATRGNTAKCTSTGWIPAPRCTLKPCDYPDIKHGGLYHENMRRPYFPVAVGKYYSYYCDEHFETPSGSYWDHIHCTQDGWSPAVPCLRKCYFPYLENGYNQNYGRKFVQGKSIDVACHPGYALPKAQTTVTCMENGWSPTPRCIRVKTCSKSSIDIENGFISESQYTYALKEKAKYQCKLGYVTADGETSGSITCGKDGWSAQPTCIKSCDIPVFMNARTKNDFTWFKLNDTLDYECHDGYESNTGSTTGSIVCGYNGWSDLPICYEREGASGCSQPPQIEHGTINSSRSSQESYAHGTKLSYTCEGGFRISEENETTCYMGKWSSPPQCEGLPCKSPPEISHGVVAHMSDSYQYGEEVTYKCFEGFGIDGPAIAKCLGEKWSHPPSCIKTDCLSLPSFENAIPMGEKKDVYKAGEQVTYTCATYYKMDGASNVTCINSRWTGRPTCRDTSCVNPPTVQNAYIVSRQMSKYPSGERVRYQCRSPYEMFGDEEVMCLNGNWTEPPQCKDSTGKCGPPPPIDNGDITSFPLSVYAPASSVEYQCQNLYQLEGNKRITCRNGQWSEPPKCLHPCVISREIMENYNIALRWTAKQKLYSRTGESVEFVCKRGYRLSSRSHTLRTTCWDGKLEYPTCAKRGGSGHHHHHH
6 | 4 % of the control | 1.87 | pCEP4-1NT8-12CT20 (other) EDCNELPPRRNTEILTGSWSDQTYPEGTQAIYKCRPGYRSLGNVIMVCRKGEWVALNPLRKCQKRPCGHPGDTPFGTFTLTGGNVFEYGVKAVYTCNEGYQLLGEINYRECDTDGWTNDIPICEVVKCLPVTAPENGKIVSSAMEPDREYHFGQAVRFVCNSGYKIEGDEEMHCSDDGFWSKEKPKCVEISCKSPDVINGSPISQKIIYKENERFQYKCNMGYEYSERGDAVCTESGWRPLPSCEEKSCDNPYIPNGDYSPLRIKHRTGDEITYQCRNGFYPATRGNTAKCTSTGWIPAPRCTLKPCDYPDIKHGGLYHENMRRPYFPVAVGKYYSYYCDEHFETPSGSYWDHIHCTQDGWSPAVPCLRKCYFPYLENGYNQNYGRKFVQGKSIDVACHPGYALPKAQTTVTCMENGWSPTPRCIRVKTCSKSSIDIENGFISESQYTYALKEKAKYQCKLGYVTADGETSGSITCGKDGWSAQPTCIKSGASGCGDIPELEHGWAQLSSPPYYYGDSVEFNCSESFTMIGHRSITCIHGVWTQLPQCVAIDKLKKCKSSNLIILEEHLKNKKEFDHNSNIRYRCRGKEGWIHTVCINGRWDPEVNCSMAQIQLCPPPPQIPNSHNMTTTLNYRDGEKVSVLCQENYLIQEGEEITCKDGRWQSIPLCVEKIPCSQPPQIEHGTINSSRSSQESYAHGTKLSYTCEGGFRISEENETTCYMGKWSSPPQCEGLPCKSPPEISHGVVAHMSDSYQYGEEVTYKCFEGFGIDGPAIAKCLGEKWSHPPSCIKTDCLSLPSFENAIPMGEKKDVYKAGEQVTYTCATYYKMDGASNVTCINSRWTGRPTCRDTSCVNPPTVQNAYIVSRQMSKYPSGERVRYQCRSPYEMFGDEEVMCLNGNWTEPPQCKDSTGKCGPPPPIDNGDITSFPLSVYAPASSVEYQCQNLYQLEGNKRITCRNGQWSEPPKCLHPCVISREIMENYNIALRWTAKQKLYSRTGESVEFVCKRGYRLSSRSHTLRTTCWDGKLEYPTCAKRGGSGHHHHHH
